Assay results as given in the supplement of paper PMC7125110.
± gives the standard error. Fewer inactive variants are shown than the library holds.

B1: glmS ribozyme (parent)
chain: AUAAAAGCGCCAGAACUACAGAAAUGUAGUUGACGAGGAGGAGGUUUAUCGAAUUUUCGGCGGAUGCCUCCAAA

What was measured:
Details in all cases: with glucosamine-6-phosphate
glucosamine-6-phosphate [1] = variants of: B1; assay: self-cleavage kobs at 40 uM GlcN6P; higher = faster cleavage; RNA array
Outline: (§1)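 Barcoded glmS ribozyme variants on sequenced MiSeq chips were transcribed in situ by E. coli RNA polymerase and tracked through a hybridised Cy3 probe at 37 °C. Glucosamine-6-phosphate (40 μM to 10 mM) in HEPES/KCl/Mg(OAc)2 buffer was flowed in, and tiles were imaged over ~14 h. Signals were normalised to baseline and to non-cleaving reference variants; per-tile medians were fit to one- or two-exponential decays to give kobs. kcat and KM came from weighted Michaelis–Menten fits across concentrations.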

glucosamine-6-phosphate [2] = variants of: B1; assay: self-cleavage kobs at 640 uM GlcN6P; higher = faster cleavage; RNA array
Outline: as §1

glucosamine-6-phosphate [3] = variants of: B1; assay: self-cleavage kobs at 10000 uM GlcN6P; higher = faster cleavage; RNA array
Outline: as §1

glucosamine-6-phosphate [4] = variants of: B1; assay: self-cleavage kobs at 160 uM GlcN6P; higher = faster cleavage; RNA array
Outline: as §1

glucosamine-6-phosphate [5] = variants of: B1; assay: self-cleavage kobs at 2500 uM GlcN6P; higher = faster cleavage; RNA array
Outline: as §1

Variant	self-cleavage kobs at 40 uM GlcN6P (glucosamine-6-phosphate [1]) [s⁻¹]	self-cleavage kobs at 640 uM GlcN6P (glucosamine-6-phosphate [2]) [s⁻¹]	self-cleavage kobs at 10000 uM GlcN6P (glucosamine-6-phosphate [3]) [s⁻¹]	self-cleavage kobs at 160 uM GlcN6P (glucosamine-6-phosphate [4]) [s⁻¹]	self-cleavage kobs at 2500 uM GlcN6P (glucosamine-6-phosphate [5]) [s⁻¹]
G44U U49C U57A	< 1e-05	< 1e-05			
G51C A64G C68A	< 1e-05		< 1e-05		
A12C G43C G66U	< 1e-05		< 1e-05		
G43C C50A U65C C68U	< 1e-05		< 1e-05		
G44A U45C A48U	< 1e-05				
A36G G41A	< 1e-05	< 1e-05	< 1e-05	< 1e-05	< 1e-05
A12C G38C U45A	< 1e-05		< 1e-05		
G41U U54A	2.71e-05 ± 1.1e-05	0.000174 ± 2.6e-05	0.000144 ± 1.7e-05	0.000104 ± 1.6e-05	0.000426 ± 7.7e-05
A48C G59A	< 1e-05	< 1e-05	< 1e-05	< 1e-05	< 1e-05
G44U C50U A53C	< 1e-05	< 1e-05			< 1e-05
G9C A12G G37C U47C G60A C71U	< 1e-05		< 1e-05		
G37U G51C C71U	< 1e-05	< 1e-05	< 1e-05	< 1e-05	
U46C G60C	< 1e-05	< 1e-05	< 1e-05	< 1e-05	< 1e-05
G41A C50G C61U	< 1e-05	< 1e-05	< 1e-05	< 1e-05	< 1e-05
G35U G41U U45C	< 1e-05		< 1e-05		
A6G U31G C34G	< 1e-05	< 1e-05	< 1e-05		
G9A C70U	< 1e-05	< 1e-05	2.28e-05 ± 1e-05		
C10A U57C	< 1e-05			< 1e-05	
G41A C61U C68A C70G C71A	< 1e-05				
G13U G41A U49G U55G	< 1e-05				< 1e-05
A12U G13C A15C C34G	< 1e-05	< 1e-05	< 1e-05		< 1e-05
C10A G41U G44U	< 1e-05	< 1e-05		< 1e-05	< 1e-05
C10U A12G U46A U47G U49G	< 1e-05				
A53U G59C	< 1e-05	< 1e-05	< 1e-05	< 1e-05	< 1e-05

Variant	self-cleavage kobs at 40 uM GlcN6P (glucosamine-6-phosphate [1]) [s⁻¹]	self-cleavage kobs at 640 uM GlcN6P (glucosamine-6-phosphate [2]) [s⁻¹]	self-cleavage kobs at 10000 uM GlcN6P (glucosamine-6-phosphate [3]) [s⁻¹]	self-cleavage kobs at 160 uM GlcN6P (glucosamine-6-phosphate [4]) [s⁻¹]	self-cleavage kobs at 2500 uM GlcN6P (glucosamine-6-phosphate [5]) [s⁻¹]
A36C G59A C67A	< 1e-05		< 1e-05		
G38U G40C G60A	< 1e-05				
G59A A64U C67G	< 1e-05				
C11G U30G A36C A64U U65C	< 1e-05	< 1e-05	< 1e-05	< 1e-05	< 1e-05
G35A A36G A48G A53G	< 1e-05		< 1e-05		
G40C U69G	< 1e-05	< 1e-05	< 1e-05		
C11G U57A	< 1e-05	< 1e-05		< 1e-05	
G37C U46G	< 1e-05	< 1e-05		< 1e-05	
G44A A48U U69G	< 1e-05				< 1e-05
A12C G38C U56C	< 1e-05		< 1e-05		
G7C A15C	< 1e-05	< 1e-05	< 1e-05	< 1e-05	< 1e-05
C10G U45G	< 1e-05	< 1e-05	< 1e-05	< 1e-05	< 1e-05
U55A C61G	< 1e-05		< 1e-05		
U46C C50A C58U G62C	< 1e-05				
A42U G44A	< 1e-05	< 1e-05		< 1e-05	< 1e-05
C11A U45C A48G	< 1e-05	< 1e-05	< 1e-05		< 1e-05
A33U C67G C70U	< 1e-05				
G63U A64G	< 1e-05	< 1e-05	< 1e-05	< 1e-05	
G9A G43C	< 1e-05				
A14U U55A	0.000252 ± 3.9e-05		0.00696 ± 0.0011		
G37U G43C U65C	< 1e-05	< 1e-05	< 1e-05		
G7A C8G A12C	< 1e-05				
A33U G38A G41C U54G	< 1e-05				
G29C G32U C34A C50G U65G C68G	8.78e-05 ± 3.1e-05	8.65e-05 ± 2.9e-05	4.42e-05 ± 1.7e-05	0.000304 ± 5.8e-05	0.000304 ± 7.2e-05

Variant	self-cleavage kobs at 40 uM GlcN6P (glucosamine-6-phosphate [1]) [s⁻¹]	self-cleavage kobs at 640 uM GlcN6P (glucosamine-6-phosphate [2]) [s⁻¹]	self-cleavage kobs at 10000 uM GlcN6P (glucosamine-6-phosphate [3]) [s⁻¹]	self-cleavage kobs at 160 uM GlcN6P (glucosamine-6-phosphate [4]) [s⁻¹]	self-cleavage kobs at 2500 uM GlcN6P (glucosamine-6-phosphate [5]) [s⁻¹]
C10U G40C	< 1e-05		< 1e-05	< 1e-05	< 1e-05
A6C G44U C68G	< 1e-05	< 1e-05	< 1e-05		
C8G U31C A36U U57A	< 1e-05				< 1e-05
C11A U31C G44C C70U	< 1e-05				
A12U G32C	< 1e-05			< 1e-05	< 1e-05
C8U C11U U45C G63C	< 1e-05				
A12G A42C U46C C61G	< 1e-05		< 1e-05		
U49C C70A	< 1e-05				
A6U A36U	< 1e-05	< 1e-05	< 1e-05	< 1e-05	< 1e-05
C8U G59C	< 1e-05	< 1e-05	< 1e-05		< 1e-05
A15U G44C U56C	< 1e-05	< 1e-05	< 1e-05	< 1e-05	< 1e-05
G29C C67U	2.43e-05 ± 8.3e-06	0.000126 ± 1.3e-05	0.000975 ± 0.0002		0.000201 ± 2.6e-05
G35A A42G A52G C70U	< 1e-05			< 1e-05	< 1e-05
C19A G29U C58A C67G	3.09e-05 ± 1.3e-05		6.68e-05 ± 1.4e-05		
A42U G62C	< 1e-05	< 1e-05	< 1e-05		
C8G U30G	< 1e-05	< 1e-05	< 1e-05	< 1e-05	
G35C U55C	< 1e-05		< 1e-05	< 1e-05	< 1e-05
A6C G40U A42C U45A G59C C61G A64U	< 1e-05				< 1e-05
U31G A33G	< 1e-05	< 1e-05	< 1e-05		
G13A G51A	< 1e-05	< 1e-05	< 1e-05		
A6C U30G G51A U65G	< 1e-05		< 1e-05		
C8G U47G C68A	< 1e-05				< 1e-05
C8U A14U G44U	< 1e-05				
G21A C70A	3.65e-05 ± 1.8e-05		0.000262 ± 6.9e-05		7.55e-05 ± 1.5e-05

Variant	self-cleavage kobs at 40 uM GlcN6P (glucosamine-6-phosphate [1]) [s⁻¹]	self-cleavage kobs at 640 uM GlcN6P (glucosamine-6-phosphate [2]) [s⁻¹]	self-cleavage kobs at 10000 uM GlcN6P (glucosamine-6-phosphate [3]) [s⁻¹]	self-cleavage kobs at 160 uM GlcN6P (glucosamine-6-phosphate [4]) [s⁻¹]	self-cleavage kobs at 2500 uM GlcN6P (glucosamine-6-phosphate [5]) [s⁻¹]
G38U G44U U69G C70G	< 1e-05				
A52U G59U	< 1e-05	< 1e-05	< 1e-05	< 1e-05	
U46C A64C	< 1e-05		< 1e-05		< 1e-05
C34G A39U C70U	< 1e-05				
C11A C50G	5.74e-05 ± 1.4e-05	0.000195 ± 4e-05	8.61e-05 ± 1.6e-05	0.000276 ± 7.2e-05	9.24e-05 ± 1.4e-05
G41C A42G A53C G63A	< 1e-05	< 1e-05			< 1e-05
G35A U54A	< 1e-05	< 1e-05			< 1e-05
A15G U47A C50A	< 1e-05				
U45C C61U	< 1e-05	< 1e-05	< 1e-05	< 1e-05	
A52U C58A	< 1e-05	< 1e-05			
A14U G37A G43U C68G C70G	< 1e-05				
U46G G60A	< 1e-05	< 1e-05		< 1e-05	
U30A A48U	< 1e-05		4.05e-05 ± 1.5e-05		
A12U C16G	0.000539 ± 9e-05	0.00491 ± 0.0008	0.0117 ± 0.0031	0.000549 ± 0.00013	0.00786 ± 0.0024
G51C U69C	< 1e-05		< 1e-05		< 1e-05
A39C G41U	< 1e-05			< 1e-05	
G9A C34U	< 1e-05	< 1e-05	< 1e-05		
A33G C61G A64C	< 1e-05		< 1e-05		
A6C U46G	< 1e-05			< 1e-05	
A12U G13A U31A G38A G40A	< 1e-05		< 1e-05		
C34U G62C	< 1e-05	< 1e-05	< 1e-05	< 1e-05	< 1e-05
U31C G41U U45G C70G	3.43e-05 ± 1.6e-05		0.000585 ± 0.00013		
